Literature values in paper PMC3012698, “Characterization of a Novel Interaction between Bcl-2 Members Diva and Harakiri” (PLoS ONE, 2010).

Conditions: ref [10]
Protocol: Circular dichroism (CD) experiments were performed on Harakiri's cytosolic domain to obtain information on its conformational behavior. […] Thus, the cytosolic domain of Harakiri is largely unstructured. Consequently, the NMR spectra of Hrk_ΔTM show small amide ^1H chemical shift dispersion (from ∼7.9 to 8.7 ppm) and severe signal overlap ( Fig. 6 ). These spectral features together with the absen ...

Bmf: BH3-only protein Bmf
structural state of unbound BH3-only protein: unstructured

Bim: BH3-only protein Bim
folding upon binding to Bcl-2 members: undergoes partial folding upon binding to Bcl-2 members | structural state of unbound BH3-only protein: unstructured
